Key:
[1] = biological target: FITC-labelled ARHGEF2 peptide 142-157 phosphorylated on Ser151 (not stated (human or mouse cDNA cloned)); experiment: MST
[2] = biological target: FITC-labelled ARHGEF2 peptide 876-891 phosphorylated on Ser885 (not stated (human or mouse cDNA cloned)); experiment: MST
[3] = biological target: DYNLT1 (Mus musculus) (UniProt P51807); experiment: NMR; settings: cited from earlier work
Sequence of DYNLT1 (Mus musculus) (P51807 whole entry): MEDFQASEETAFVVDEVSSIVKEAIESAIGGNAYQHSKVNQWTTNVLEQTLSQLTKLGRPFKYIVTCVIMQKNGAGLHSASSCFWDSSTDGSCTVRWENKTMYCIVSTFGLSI

Sequence of ARHGEF2 peptide 133-161 (Q60875 133-161): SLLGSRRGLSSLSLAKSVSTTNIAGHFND

| Kd [1] | Kd [2] | Substance | Kd [3] |
| --- | --- | --- | --- |
| 11.6 µM | 2.3 µM | GST-14-3-3 (from UniProt P63101 1-245) (natural protein) |  |
|  |  | ARHGEF2 peptide 133-161 (from UniProt Q60875) | 80 µM |

— article PMC6504561
